Values quoted from earlier work in patent US20250304973A1, “HIGH-AFFINITY THROMBIN APTAMERS AND METHODS OF USE” (Ayass Bioscience LLC, priority 2024, published 2025).

Conditions: reversal of dabigatran

B1: Idarucizumab: a monoclonal antibody that binds to dabigatran and neutralizes its anticoagulant properties (antibody, chains of the INN, looked up, V domains shown)
VH: QVQLQESGPGLVKPSETLSLTCTVSGFSLTSYIVDWIRQPPGKGLEWIGVIWAGGSTGYNSALRSRVSITKDTSKNQFSLKLSSVTAADTAVYYCASAAYYSYYNYDGFAYWGQGTLVTVSS
VL: DVVMTQSPLSLPVTLGQPASISCKSSQSLLYTDGKTYLYWFLQRPGQSPRRLIYLVSKLDSGVPDRFSGSGSGTDFTLKISRVEAEDVGVYYCLQSTHFPHTFGGGTKVEIK
modifications: Fab
In the case of B1, the “time to reversal of anticoagulant effect” value is given as “this in ~2-4 hours”.
